In the DeepSol protein solubility set:

Test: soluble on expression in E. coli; label from the status in PepcDB or PDB records

Sequence | soluble on expression in E. coli
MLPSSIEDYALIGDCETAALVGRDGSIDWLCWPSFDSEACFAALLGNEDNGRWQIAPADEVVRCSRRYRGDSLILETTFETATGSITLIDFMPPRGSASDVVRLVRGDRGRVKVAMQLVIRFGYGVALEHHHHHH | not soluble
MKLKLVDVETNPHEEEVGTCEFCMSVEMVNEPVFVFKKDIGELVRVKAFIWSWGFYDEENIENIVDFAAYVNEQEFDEEQELDYSWLTNLIYEYEYGKDC | not soluble
MAHHHHHHMSRSSLIFENNNDNNEKKKRKLFQDEYNYQSCYPLSYLNVYNNNNNNNHNSNNNSNNDNNRIYDYAYSQSYNYTYDQTYNDVYNKIYNDSKNIAQNVLNVQVNEEPYDKSLNNSHTTYPFSNIINSNQLNSNILNNNEMIDMRNFYENGNFVNPMIENKDQNQFNEPNKNNLNNTMANVNNINNINNIQFDKSLLINCIDVLLNFMNYNNLKDTITEETLHENLINLRFYILRLNGGKVSQKKITEYFHKM | not soluble
MSVLGFDIGNLNCYIGVARQGGIEVITNDYSLHATPACVSFGPKDRSMGVAARQAVTTNIKNTVINFKHLIGRKFSDPVAQRFIPFIPCKVVKLPNDDIGVQVSYLGEPHTFTPEQVLAALLTKLRTIVESQLSDVKKVSDCVLAVPSYFTDVQRRAVLSAIQYAGLNSLRIVNETTAIALAYGIYKQDLPEEDAKSRNVVFLDIGHSSTQASLVAFNRGKLQMVNTSYDLESGGIWFDALIREHFRKEFKTKYGIDAATSPRPWLRLLDECERVKKQMSANQTPIPLNIECFMEDKDVTGKMQRQEFEDLAAPIFNRIKQVLINLFADGVSIKPEEIDEIEIVGGSSRIPMIREIVKDLFGKEPKTTMNQDEAVARGAAMQCAILSPTFRVREFAIKDTQPYRIRLSWNSTGENGGENDVFSPRDEVPFSKLVSLLRSGPFNVEAHYAQPNVVPHNQVHIGSWKVNGARPGADGGNQKVKVKVRVNPDGIFTIASATMYEPRIVEEVPAEAMEVDGDAKTEAPAEPLEPVKKTKLVPVDLEVIESIPVSYDVQKFHNLELQMQESDAREKAKADAKNSLEEYVYEMRDKVSDQYAEFITPAAADEFRSVLTSTEDWLYDEGEDAERDVYEKRLSELKAVGTPVVERYRESETRKPAFDSFDQSIMRVRKAYEDYANGGPTYAHLDSKEMEKVINAIEDKKKWLDEARHKQETRSKTDAPVVFTEEILQNKNVFENVVNPILNKKKPAAPAPPKKEEPQPAAGDQPQSQPGEMDVD | not soluble
MLYLTQRLEIPAAATASVTLPIDVRVKSRVKVTLNDGRDAGLLLPRGLLLRGGDVLSNEEGTDFVQVIAADEEVSVVRCDDPFMLAKACYALGNRHVPLQIMPGELRYHHDHVLDDMLRQFGLTVTFGQLPFEPEAGAYASES | soluble
MGSDKIHHHHHHMTQTDSLPGVQATVQDMGERARRAARVLRSLPTGRKVQALRALAAELRAREAGILAANAQDVQAAEAAGLPAPLVDRLRLSAGALAAIARDVEAVAALPDPVGEQTDEKTLPSGIRVSQRRVPLGVLGVIYESRPNVTVDVAALALMSGNAAILRGGKETVNSNAALEDAIHAALNREGLPADAVQVIRDPDRARMLELLRLDESVDAIIPRGGAGLHRFCVENATVPVIVGGIGVVHIYLDGSFVQTPQDVQIAAALIRNAKTQKPSACNALDTLLIDRAALAALPDVVRPLLESGVEVRADAEAQAALAGAGLNVTSAQLGDYGTEFLALVASLRTVSGLDEALDFIAERGGHTDVILTRDPAQAERFVQDVDSAAVMVNVSPRFNDGGQLGLGAEVAISTQKLHARGPMGLRELTTSKWVVRGEGQVRD | not soluble
MALMSDKFLSIVIPAYNSEKYIEKNLMFLSRQTSNNFEVIVVDDGSTDNTCEVSEACLENFKINHRVIRCEENRGQSVARNIGINYSRGKYILFLDSDDFAENNLVQILERNMFNEPDIVFFDYKRIKEGDSVNVNIAQNFEFGKIKSGEEVFNAYKDNKIRLWTGSLVYNKEFLNKNKLRFLEGAHGAEDLNFIFKALLSSKKVRGIEDSLVFYCQRGDSLTNNPDIYKNITVVESMEDVAKFIDENKLDKKLKEAIEKEFTCEHIMYQILGYLNSETKKDTLSVLKNKNVKKYLKKATIKTNRYGRSMYTYMKMAAYFPNLFIKTYLKNTGKLEHHHHHH | soluble
MVIILRHVRVFNGVNECDIYLIGTAHVSKDSIEEVEKIISSVSPEGIAVELDDRRFFSLITNEEKKVDLKKVLKEGNFLKFFIYLILANSQKKIGESFGIKPGSEMKKAIEIASKYGLPIYLIDRDIDITLSRLMDRMTFKEKMKIFWELLNSDEEDLELDDDLLNDMVKNPEKFIKLLKEISPTIYEVLVDERDRFMAKRLFELSKNKNSLVAVVGAGHVEGIVRYLKKLENGNDIDLMELIKVKKRK | not soluble
MAHHHHHHMEVVVKSIGTAFTVAVIPVLKDNYSYVIHDKATNTLAAVDVSVDIDPVIDYVRRLGGVDRTTDLRTILSTHKHHDHSGGNISLQKKLNAMGAFRIIGGANEPIPGVTEKVREGDHFSIGELKVDVLDAPCHTSGHVLYKVYHPQKAENGIALFTGDTMFVGGIGAFFEGDAVLMCSALRKVYNLNGACESSACDATDVQKRDNHTYIFPGHEYTVNFLRFSRDALPASHPDVSFVEAQLRRYTESVAGNVPTVPSTLAEEKRQNLFLRTCDEAFVRVMNKGETAVKLMDFLYNTCP | soluble
MCEQGVSYYNSQELKCCKLCKPGTYSDHRCDKYSDTICGHCPSDTFTSIYNRSPWCHSCRGPCGTNRVEVTPCTPTTNRICHCDSNSYCLLKASDGNCVTCAPKTKCGRGYGKKGEDEMGNTICKKCRKGTYSKTGHHHHHH | soluble
MNGSRSTFLYLLAAAGLALTPAAQADRGNDVVARLNQLYNDTRQDCGGPSKPAFLCSGVLFRATWPSTDYMFYSISPKSQKSGGVSASYLRKDAKYRKLAYGLKSGFIFDTIFGNPKDHQDYAVLCSFPIDAATDDRAQQGCTDSRRTPNSVEKSCQDINVSTAEQWAANYRQNRGDHSRQCSFDVRDERNTAAGPAFYQSIRAMAQIADESFTTQNELRLAKWEENPPKSPSILAAFYTEDAGLEGARLNQIQWYQSVQAFLPIINMRLPQTRQQDAQFAYDGRKQAIYPTSEKNACERYVESATWVERDDPGFRKKIMTLEVVPTDCGRKIQDNQTNNFFNELVVDHYLDSEWKDNPDNRDSNIGSMRRQLVCHFNVARNKPEWNLEPSRPYTSNEDSIAKGCNNT | not soluble
MPIKIPDNLPAKEILTKENIFVMAESRAYSQDIRPLKIVILNLMPIKQTTETQLLRLLGNTPLQVEVSFMYTDTHISKNTSYDHLQTFYQTIDEVKQKKFDGMIITGAPIETLPYDEVDYWNELKQIMEWSKTNVTSTLHICWGAQAGLFYHYGVEKVPLPEKQFGVYPHKINVPNVKLLRGFDDEFYVPHSRHTDINKAQIEAHPDLEILSESEQAGVYIVASKDGKQIFVTGHSEYDACTLQQEYERDRARGLNIQVPENYFPNDDATRKPLLRWRAHSYLLFSNWLNYYVYQETPYDLSRMAGDPLEHHHHHH | soluble
MKIPIPSIGHVALLASAILFASSANAASDEDGIIIYNAQHESFAKSWAEGFTKDTGIKVTLRNGKDSELGNQLIQEGSSSPADVFLTENSPAMVLVDNAKLFAPLDAATQAQVAKEYRPEDGRWTGIAARSTVFVYNPAKISEAELPKSLMDLAKPEWKGRWAASPSGADFQAIVSAMLALKGEQATLEWLKAMKTNATAYKGNSTVMKAVNAGQIDGGVIYHYYPFVDQAKTGENSGNIKLHYFKNKDPGAFVSISGAGVLASSKHPQQAQKFVQWVTGKAGQDFLRESNSAFEYAVGVNAASNPKLVPLKDLDPPKVEVSKLNSKKVVELMTEAGLL | not soluble
MNSAHRSSLKKRPGPQDDRRVSFASPVSSSQKTAAVTVAAQTKQPAKAKNLRTMHSTPKKSKPAHDVADIISLVSKQSDILDDVSEIEHKMIKQAKMTQDLTMELANSIERIANMALAESKLSDQMEKQSKKLISLEGKTKELVEKANNWSKTLENRVDARSHHSTCLNDVQAAIKIINNAKINNDGFSEDFSAHYDKLLDLVETLEPWADKL | soluble
MGSDKIHHHHHHMMATSAVEKIDYWQASILKEMELSRAQFTHFAFEKHVHLDYHIGVVCHGGQRYHHRGSEYRLTPGNISTLNPDESHNGQSIADGGYEALVMSLPTSYVQQVGGALNQGELYFSTPILDDPKLRAYFIRLHRQLTLHQANITPLEAETLLLGFISELFYRHGKLRNLPSCQARLSGAQLDNIKQQFHQGLDQEFELEQLALSVDLSKFQFLRQFKAATGMTPHAYLKRLRLEYAKKALMRGDSAISTAYDLGFFDQSHFNKAFKRAFLITPAHFQKRVTP | not soluble
MDQLREIVDPDQPQTLRQQAEGWGKMAELLREYSLLLDERLRLVEHSWTGEAATMYFDEVRRVQEYIEDSAERATANCGLWCVIATMAGIAKHDVSHIHQLWKDLDAATDAVGLGFVAGVFGADEALEDFQRKPFDAASRQIMEVTMSAADESYARMRDFEEFEPPPSVDDSGLELQSVSTPAPPSGTAVAPPSTTVTATPAVPLGPTAPRPVVPSVIGSRPGMMPMARPMMGPGHTVPPVIGQRDGGSAQPGATGRLIGRDGVVRVTPDVDLRDPNASRAHYGGDDVNRGVIKSQNPQRVADEAQFKLEEEVRRLRERAYAHRVETLTADHSQYAIPGIVGDDSAWDTKAHDPGPVAFDVRRLRHRPVVDDWTLAVRRH | not soluble
MAHHHHHHMIERTDVVTGTETQEGSTVPQEARQFLQIIATMQSESEERARIIGELRYRKLLVEEERDKNFMEREAVVAKLADARAQLLQLDVEHRELQKRQRSSESEILENSRQSQRCRTLLSTCRGDLTVHPMVPNSASELAAEATAAGTSSAAHNAYTEEAKWLKHLFITYGQLYNGTDFLQELRVSMKNLYVEVSKETHNTVQRNLSDWEATCLQSLPHLTADERTLLHFQLMLHPFV | not soluble
MTYRIVLKSDPEKRFKNIRACKDEPMQMVVRNINNGADYVHPEQDVEVFSVKTANNNDLVCVKCTPDSYSSNPAVAEQVVLFCQPNSSDLGGFLQPNSMNFVTYANVFETDLYAFDYSGYGFSSGTQGEKNVYADVRAVYEKILEMRPDKKIVVMGYSIGTTAAVDLAATNPDRLAGVVLIAPFTSGLRLFSSKPDKPDTCWADSFKSFDKINNIDTRVLICHGDVDEVIPLSHGLALYEKLKNPVPPLIVHGANHHTILSGKYIHVFTRIANFLRNETLVSCRSAEVDSSQQQQQLSSKRTENE | not soluble
MIKGGGGKSSGYSADLMVCFPSRAHLSLPSKSISSPSSSFNRRQNAPHHRRSISKLSSSGGGVRQNRGGGREVVEEPTSPKVTCAGQIKVRSSKRDGGGKNWQSLMAEIEKIHRSKSESKFFGIKRDVMGFLTCLRDFDFRCFGAFPPVDIISDDEEEDEEEEEEDEEEDEDESSGTVFSKWLMVLHEKQNNEECVDGKENVFSDVETAVPPPNALLLMRCRSAPVKNWSEEKKEETEEGDNRVKQSGEEEEEEKDRVGNKKDLRSLMEEEKKMNLVVMNYDTNYYKLSNDIAKETWVVGGIQDPLFRSRSWKK | not soluble
MAHHHHHHMFSSHKTPAKAQRDGYDDEQHLVAAVSEFKKVEASNQSMVDQLHQRLASPFQITAKPCEAGRAAVLQCYQQLQSSSAVTTSNAASSTSPAPPPGARSDSKSAKVAPAEAWLSIPYQQCYETALAYHQCVEDTLAKHLALVAAFEQCGTQQKIAHQSAMKAQDKPQ | soluble
